This is an account of results in publication PMC7708047, “VEZF1–guanine quadruplex DNA interaction regulates alternative polyadenylation and detyrosinase activity of VASH1”.

The series has as its target T1, VEZF1-3xFlag (Homo sapiens, UniProt Q14119 1-521).
T1 sequence: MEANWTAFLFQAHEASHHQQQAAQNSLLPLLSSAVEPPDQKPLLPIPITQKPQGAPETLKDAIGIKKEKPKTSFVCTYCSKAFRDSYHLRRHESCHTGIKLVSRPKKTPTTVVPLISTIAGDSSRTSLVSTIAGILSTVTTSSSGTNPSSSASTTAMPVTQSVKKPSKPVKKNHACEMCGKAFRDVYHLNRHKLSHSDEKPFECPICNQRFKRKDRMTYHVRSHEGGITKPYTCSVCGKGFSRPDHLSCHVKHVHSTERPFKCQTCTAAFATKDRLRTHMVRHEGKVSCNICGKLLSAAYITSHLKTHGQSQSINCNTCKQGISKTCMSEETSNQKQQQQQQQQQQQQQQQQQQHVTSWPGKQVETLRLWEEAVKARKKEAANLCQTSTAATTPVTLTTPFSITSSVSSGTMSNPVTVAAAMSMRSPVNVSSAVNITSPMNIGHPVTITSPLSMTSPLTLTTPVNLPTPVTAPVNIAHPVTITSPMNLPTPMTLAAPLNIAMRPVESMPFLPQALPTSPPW
Put plainly: EMSA; 100 mM K+, 10 uM Zn2+; EMSA: 25 nM DNA, 10 mM Tris-HCl pH 7.5, 100 mM KCl, 10 uM ZnCl2, 1 mM DTT, 3% glycerol, on ice 30 min; 6% PAGE in TBE pH 8.3, 4 C. Particulars: protein: recombinant, tags: C-terminal 3xFlag, label: 5'-TAMRA.

In the case of TGAGGGTGAGGAGTGTGGGGA (ssDNA) [MYC M4], the binding result (single strand) is given as “no binding”.
Regarding GTGTGAGGTGGAAGTGAAAGAAGTGAAGAGCAGTGAGAGTGTGCC (ssDNA) [R1M4-1], the binding result (single strand) is listed as “no binding”.
Take AAAGGGTTAGTGTTAGTGTTAGGGAA (ssDNA) [hTEL M4]: the equilibrium dissociation constant (Kd) (single strand) worked out at 1640 ± 70 nM.
Consider TGAGGGTGGGGAGGGTGGGGA (structured_DNA) [MYC G4], for which, where the note is “G4”, the Kd amounted to 2060 ± 120 nM.
The same measure, in the same setting: with AAAGGGTTAGGGTTAGGGTTAGGGAA (structured_DNA) [hTEL G4] the figure was 780 ± 40 nM.

B1: R1M4-2 (ssDNA)
DNA: TCGTGAGTGTGGAGTGAGGTGCTGTGCCTGAGCTGAGAGCAGCTTAGTTTGCA
Turning to B1, the binding result (single strand) is given as “no binding”.
